Laboratory results taken from patent US20250019438A1 (AstraZeneca / MedImmune, published 2025).

Target: Biotinylated recombinant human CD3εδ (Acro Biosystems, CDD-H82W6) (human) (UniProt P07766)
Test: Octet BLI, biotinylated CD3εδ on streptavidin sensors, 1:1 model

Biotinylated recombinant human CD3εδ (Acro Biosystems, CDD-H82W6) (human), sequence (P07766 23-126, stated change not applied, chain 1 of 2): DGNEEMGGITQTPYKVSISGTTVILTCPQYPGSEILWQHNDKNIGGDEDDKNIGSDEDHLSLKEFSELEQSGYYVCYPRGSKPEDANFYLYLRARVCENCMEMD
Biotinylated recombinant human CD3εδ (Acro Biosystems, CDD-H82W6) (human), sequence (P04234 22-105, stated change not applied, chain 2 of 2, further chain): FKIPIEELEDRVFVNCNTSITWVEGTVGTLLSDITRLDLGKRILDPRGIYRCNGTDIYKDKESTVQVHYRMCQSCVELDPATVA

Kd [µM]	koff [s⁻¹]	kon [M⁻¹ s⁻¹]	Binder
1.71	0.0212	12400	EGFR-CD3 DuetMab with anti-CD3 variant AZ Vκ 26 + AZ VH SN82 (bispecific antibody, part only; not given: anti-EGFR arm, constant regions, V domains shown, not shown: another chain or arm of the molecule; a dimerising Fc or GST; small tags and cut ends) VH: EVQLVESGGALVKPGGSLRLSCAASGFTFSNAWMHWVRQAPGKQLEWVAQIKDRSQTYATYYAESVKGRFTISRDDSKNTLYLQMNSLKTEDTAVYYCRGVYYANTPFDYWGQGTLVTVSS VL: DIVMTQSPLSLPVTPGEPASISCRSSQSLVHNTGNTYLSWYLQKPGQSPQSLIYKVSNRASGVPDRFSGSGSGTDFTLKISRVEAEDVGVYYCGQGTQAPFSFGSGTKVEIK
4.66	0.0511	11000	EGFR-CD3 DuetMab with anti-CD3 variant AZ Vκ 26 + AZ VH E79 (bispecific antibody, part only; not given: anti-EGFR arm, constant regions, V domains shown, not shown: another chain or arm of the molecule; a dimerising Fc or GST; small tags and cut ends) VH: EVQLVESGGALVKPGGSLRLSCAASGFTFTEAWMHWVRQAPGKQLEWVAQIKDRSQTYATYYAESVKGRFTISRDDSKNTLYLQMNSLKTEDTAVYYCRGVYYAVTPFDYWGQGTLVTVSS VL: DIVMTQSPLSLPVTPGEPASISCRSSQSLVHNTGNTYLSWYLQKPGQSPQSLIYKVSNRASGVPDRFSGSGSGTDFTLKISRVEAEDVGVYYCGQGTQAPFSFGSGTKVEIK
2.28	0.0172	7540	EGFR-CD3 DuetMab with anti-CD3 variant AZ Vκ 26 + AZ VH E75 (bispecific antibody, part only; not given: anti-EGFR arm, constant regions, V domains shown, not shown: another chain or arm of the molecule; a dimerising Fc or GST; small tags and cut ends) VH: EVQLVESGGALVKPGGSLRLSCAASGFTFTEAWMHWVRQAPGKQLEWVAQIKDRSQTYATYYAESVKGRFTISRDDSKNTLYLQMNSLKTEDTAVYYCRGVYYANAPFDYWGQGTLVTVSS VL: DIVMTQSPLSLPVTPGEPASISCRSSQSLVHNTGNTYLSWYLQKPGQSPQSLIYKVSNRASGVPDRFSGSGSGTDFTLKISRVEAEDVGVYYCGQGTQAPFSFGSGTKVEIK
0.595	0.0231	38800	EGFR-CD3 DuetMab with anti-CD3 variant AZ Vκ 29 + AZ VH R82 (bispecific antibody, part only; not given: anti-EGFR arm, constant regions, V domains shown, not shown: another chain or arm of the molecule; a dimerising Fc or GST; small tags and cut ends) VH: EVQLVESGGALVKPGGSLRLSCAASGFTFTRAWMHWVRQAPGKQLEWVAQIKDRSQTYATYYAESVKGRFTISRDDSKNTLYLQMNSLKTEDTAVYYCRGVYYANTPFDYWGQGTLVTVSS VL: DIVMTQSPLSLPVTPGEPASISCRSSQSLVHNTGNTYLSWYLQKPGQSPQSLIYKVSNRASGVPDRFSGSGSGTDFTLKISRVEAEDVGVYYCGQGTQFPFTFGSGTKVEIK
3.92	0.0287	7330	EGFR-CD3 DuetMab with anti-CD3 variant AZ Vκ 26 + AZ VH E82 (bispecific antibody, part only; not given: anti-EGFR arm, constant regions, V domains shown, not shown: another chain or arm of the molecule; a dimerising Fc or GST; small tags and cut ends) VH: EVQLVESGGALVKPGGSLRLSCAASGFTFTEAWMHWVRQAPGKQLEWVAQIKDRSQTYATYYAESVKGRFTISRDDSKNTLYLQMNSLKTEDTAVYYCRGVYYANTPFDYWGQGTLVTVSS VL: DIVMTQSPLSLPVTPGEPASISCRSSQSLVHNTGNTYLSWYLQKPGQSPQSLIYKVSNRASGVPDRFSGSGSGTDFTLKISRVEAEDVGVYYCGQGTQAPFSFGSGTKVEIK
0.224	0.0119	53300	EGFR-CD3 DuetMab with anti-CD3 variant AZ Vκ 29 + AZ VH R75 (bispecific antibody, part only; not given: anti-EGFR arm, constant regions, V domains shown, not shown: another chain or arm of the molecule; a dimerising Fc or GST; small tags and cut ends) VH: EVQLVESGGALVKPGGSLRLSCAASGFTFTRAWMHWVRQAPGKQLEWVAQIKDRSQTYATYYAESVKGRFTISRDDSKNTLYLQMNSLKTEDTAVYYCRGVYYANAPFDYWGQGTLVTVSS VL: DIVMTQSPLSLPVTPGEPASISCRSSQSLVHNTGNTYLSWYLQKPGQSPQSLIYKVSNRASGVPDRFSGSGSGTDFTLKISRVEAEDVGVYYCGQGTQFPFTFGSGTKVEIK
0.878	0.0487	55500	EGFR-CD3 DuetMab with anti-CD3 variant AZ Vκ 29 + AZ VH R79 (bispecific antibody, part only; not given: anti-EGFR arm, constant regions, V domains shown, not shown: another chain or arm of the molecule; a dimerising Fc or GST; small tags and cut ends) VH: EVQLVESGGALVKPGGSLRLSCAASGFTFTRAWMHWVRQAPGKQLEWVAQIKDRSQTYATYYAESVKGRFTISRDDSKNTLYLQMNSLKTEDTAVYYCRGVYYAVTPFDYWGQGTLVTVSS VL: DIVMTQSPLSLPVTPGEPASISCRSSQSLVHNTGNTYLSWYLQKPGQSPQSLIYKVSNRASGVPDRFSGSGSGTDFTLKISRVEAEDVGVYYCGQGTQFPFTFGSGTKVEIK
